According to PMC7335073, “Comprehensive structure-function characterization of DNMT3B and DNMT3A reveals distinctive de novo DNA methylation mechanisms” (Nature Communications, 2020):
Residue numbers refer to the chain shown, from its start. Names may count otherwise.

B1: MTase domain of human DNMT3B (residues 562–853) (domain or fragment, UniProt Q9UBC3-1 562-853, looked up)
chain: KLYPAIPAARRRPIRVLSLFDGIATGYLVLKELGIKVGKYVASEVCEESIAVGTVKHEGNIKYVNDVRNITKKNIEEWGPFDLVIGGSPCNDLSNVNPARKGLYEGTGRLFFEFYHLLNYSRPKEGDDRPFFWMFENVVAMKVGDKRDISRFLECNPVMIDAIKVSAAHRARYFWGNLPGMNRPVIASKNDKLELQDCLEYNRIAKLKKVQTITTKSNSIKQGKNQLFPVVMNGKEDVLWCTELERIFGFPVHYTDVSNMGRGARQKLLGRSWSVPVIRHLFAPLKDYFACE
modifications: catalytic cysteine C651 covalently linked to the Zebularine of the DNA
notes: Two copies stand in the DNMT3L–DNMT3B–DNMT3B–DNMT3L heterotetramer; also called hDNMT3B; WT DNMT3B; source: E. coli BL21 DE3 (RIL), co-expressed with DNMT3L, purified (Ni-NTA, Heparin HP, SEC; after DNA cross-linking HiTrap Q XL, SEC); not shown: His6, N-terminal, cleaved; SUMO, N-terminal, cleaved
B2: K777A-mutated MTase domain of human DNMT3B (residues 562–853) (domain or fragment, UniProt Q9UBC3-1 562-853, looked up)
chain: B1 chain with K216A
modifications: catalytic cysteine C651 covalently linked to the Zebularine of the DNA
notes: also called K777A DNMT3B; source: E. coli BL21 DE3 (RIL), co-expressed with DNMT3L, purified (Ni-NTA, Heparin HP, SEC; after DNA cross-linking HiTrap Q XL, SEC); not shown: His6, N-terminal, cleaved; SUMO, N-terminal, cleaved

Target: the molecule itself
Experiment: crystal structure; covalent DNMT3B–DNMT3L–DNA complexes (25-mer Zebularine DNA: CGA, CGT or CAG) with SAH; proteins co-expressed in E. coli and purified as a complex; hanging-drop vapor diffusion, 0.1 M Tris-HCl pH 8.0, MgCl2, PEG, 0.2 mM AdoHcy, 4 °C or 16 °C

| Protein | binding result |
| --- | --- |
| B1 | binds |
| B2 | binds |
